Reference: US20110123549A1 (KALOBIOS PHARMACEUTICALS, published 2011)
Residue numbers refer to the chain shown, from its start. Values belong to the binder of their own block, whether it stands above or below them.

Key:
[1] = biological target: T1, EphA3 expressed on the surface of human cells (SKmel28 human melanoma, LnCAP prostate cancer line, primary … (human, UniProt P29320 21-983)); assay: flow cytometry on live SKmel-28 cells, 5 ug/ml IgG, anti-human IgG phycoerythrin conjugate [SKmel-28]
T1 construct: whole, on cells; It gives no species for LnCAP, and the leukemia cells come from patients; also called SKme128; primary leukemia cells expressing EphA3
T1 sequence (looked up): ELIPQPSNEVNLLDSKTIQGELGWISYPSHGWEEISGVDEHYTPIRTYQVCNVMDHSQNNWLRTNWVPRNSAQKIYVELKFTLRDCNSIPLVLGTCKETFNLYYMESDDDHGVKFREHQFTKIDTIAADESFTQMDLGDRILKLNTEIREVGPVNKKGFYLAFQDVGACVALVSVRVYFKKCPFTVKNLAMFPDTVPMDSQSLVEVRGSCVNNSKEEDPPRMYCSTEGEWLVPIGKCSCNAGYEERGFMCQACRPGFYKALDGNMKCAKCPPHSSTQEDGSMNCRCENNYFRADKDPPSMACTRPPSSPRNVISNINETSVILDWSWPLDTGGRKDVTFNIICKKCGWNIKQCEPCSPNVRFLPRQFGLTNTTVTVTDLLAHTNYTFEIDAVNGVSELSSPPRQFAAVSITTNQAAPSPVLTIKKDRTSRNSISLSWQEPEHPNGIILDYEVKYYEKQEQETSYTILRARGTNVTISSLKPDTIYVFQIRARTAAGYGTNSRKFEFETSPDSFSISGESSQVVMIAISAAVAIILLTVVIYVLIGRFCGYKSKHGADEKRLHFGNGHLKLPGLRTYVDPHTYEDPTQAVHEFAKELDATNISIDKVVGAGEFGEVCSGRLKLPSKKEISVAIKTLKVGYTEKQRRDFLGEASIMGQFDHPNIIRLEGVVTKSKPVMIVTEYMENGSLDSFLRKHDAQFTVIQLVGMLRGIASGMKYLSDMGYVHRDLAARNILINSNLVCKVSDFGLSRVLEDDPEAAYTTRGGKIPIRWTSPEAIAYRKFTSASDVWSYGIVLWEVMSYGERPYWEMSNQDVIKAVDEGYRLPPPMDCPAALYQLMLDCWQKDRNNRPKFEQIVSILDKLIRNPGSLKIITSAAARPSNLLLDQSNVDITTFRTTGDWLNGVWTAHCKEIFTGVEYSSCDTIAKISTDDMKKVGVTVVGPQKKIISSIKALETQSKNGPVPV
Source text: (§1) B16, SKme128, and LnCAP cells were blocked with 2% BSA and rat IgG and probed with engineered anti-EphA3 IgG, chimeric IIIA4 IgG or an isotype control IgG. Bound antibody was detected by an anti-human IgG Phycoerythrin conjugate using a Facs Caliber flow cytometry (BD). Dead cells were excluded by propidium iodide staining For each graph, the control antibody profile is the left-most curve shown in the graph.
(§2) Typically, 3×10⁶ cells of SKme128, LnCAP and B16-F10 were collected by centrifugation at 3000 rpm for 3 minutes. Media were removed and the cells blocked with 2% BSA in PBS for 30 minutes at 4° C. followed by a second block with 10 μg/ml rat IgG for 30 minutes at 4° C. Cells were pelleted, re-suspended in 1.5 ml PBS and divided into 500 μl aliquots. Each aliquot was probed separately with 5 μg/ml of control IgG, humaneered IgG or chimeric IIIA4 IgG for 45 minutes at 4° C. The samples were washed once in PBS and anti-human IgG-phycoerythrin-conjugate was added. After 45 minutes, cells were washed once, re-suspended in PBS and analyzed by flow cytometry using a FACS Caliber flow cytometery. Propidium iodide was added just prior to analysis to exclude dead cells.
(§3) The exemplary engineered antibody was also tested for binding to EphA3 expressed on the surface of live cells. […] Bound antibody was detected using flow cytometry by an anti-human IgG phycoerythrin conjugate (FIG. 5). […]

[2] = biological target: T2, EphA3 expressed on the surface of B16 mouse melanoma cells (mouse, UniProt P29319 21-983); assay: flow cytometry on live B16 cells, 5 ug/ml IgG, anti-human IgG phycoerythrin conjugate [B16]
T2 construct: whole, on cells; Endogenous EphA3 of a tumor cell line known to express EphA3; also called B16-F10
T2 sequence (looked up): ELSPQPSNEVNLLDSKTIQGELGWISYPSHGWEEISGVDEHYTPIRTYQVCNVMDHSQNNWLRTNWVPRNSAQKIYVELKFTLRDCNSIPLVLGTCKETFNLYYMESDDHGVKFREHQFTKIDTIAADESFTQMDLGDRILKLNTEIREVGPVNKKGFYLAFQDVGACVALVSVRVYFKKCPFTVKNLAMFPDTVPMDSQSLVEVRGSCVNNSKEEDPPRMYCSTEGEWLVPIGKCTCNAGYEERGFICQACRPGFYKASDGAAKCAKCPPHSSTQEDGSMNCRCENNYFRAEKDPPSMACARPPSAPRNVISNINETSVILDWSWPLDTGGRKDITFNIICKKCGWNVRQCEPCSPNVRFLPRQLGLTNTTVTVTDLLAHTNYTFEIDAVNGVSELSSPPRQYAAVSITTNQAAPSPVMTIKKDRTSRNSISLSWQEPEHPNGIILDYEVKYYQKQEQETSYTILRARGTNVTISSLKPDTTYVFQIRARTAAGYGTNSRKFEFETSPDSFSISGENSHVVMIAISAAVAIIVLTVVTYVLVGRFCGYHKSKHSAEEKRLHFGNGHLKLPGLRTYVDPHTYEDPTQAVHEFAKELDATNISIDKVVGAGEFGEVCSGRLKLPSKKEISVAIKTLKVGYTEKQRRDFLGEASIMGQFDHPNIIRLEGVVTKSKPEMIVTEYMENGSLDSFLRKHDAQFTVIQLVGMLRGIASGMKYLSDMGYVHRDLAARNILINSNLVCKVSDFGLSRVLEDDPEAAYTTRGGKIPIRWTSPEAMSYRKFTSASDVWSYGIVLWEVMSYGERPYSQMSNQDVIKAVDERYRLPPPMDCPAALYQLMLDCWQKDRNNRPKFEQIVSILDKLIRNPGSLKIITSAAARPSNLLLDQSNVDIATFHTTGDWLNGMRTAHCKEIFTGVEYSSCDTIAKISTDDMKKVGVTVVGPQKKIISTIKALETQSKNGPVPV
Source text: as §1, §2, §3

[3] = biological target: T3, EphA3-Fc recombinant fusion protein (UniProt P29320 21-541, limits assumed); assay: ELISA, plate coated with EphA3-Fc, detection with anti-human kappa chain HRP conjugate, A450
T3 construct: also called the antigen
T3 sequence (looked up): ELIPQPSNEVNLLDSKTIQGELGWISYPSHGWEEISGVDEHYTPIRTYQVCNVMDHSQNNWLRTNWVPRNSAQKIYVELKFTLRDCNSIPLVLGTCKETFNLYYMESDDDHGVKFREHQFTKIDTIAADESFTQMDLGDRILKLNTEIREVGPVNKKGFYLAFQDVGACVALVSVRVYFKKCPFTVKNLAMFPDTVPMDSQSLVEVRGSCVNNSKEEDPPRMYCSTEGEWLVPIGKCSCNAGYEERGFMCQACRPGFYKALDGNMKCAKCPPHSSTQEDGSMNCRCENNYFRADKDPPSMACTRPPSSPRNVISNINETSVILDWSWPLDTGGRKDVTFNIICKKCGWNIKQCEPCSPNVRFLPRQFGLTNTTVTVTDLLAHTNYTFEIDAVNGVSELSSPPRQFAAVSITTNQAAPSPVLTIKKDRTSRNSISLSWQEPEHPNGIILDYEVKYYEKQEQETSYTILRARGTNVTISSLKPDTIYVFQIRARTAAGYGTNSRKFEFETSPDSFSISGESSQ
Source text: A full-length antibody (IgG1κ) was constructed, expressed from CHO cells and purified by Protein A affinity chromatography. ELISA plates were coated with EphA3-Fc and binding of cIIIA4 IgG, an exemplary engineered IgG, and a control IgG1 were compared (FIG. 3). The EC₅₀ in this assay was approximately three-fold lower for the engineered IgG than for the original chimeric antibody.

[4] = biological target: T3, EphA3-Fc recombinant fusion protein; assay: SPR (Biacore), 25 C, medium density surface, 1:1 model; medium chip density
Method: (§4) Binding kinetics of two engineered Fabs and reference Fab FA106 were analyzed using a Biacore. The three Fabs were diluted from the starting concentration of 500 nM to 100 nM and further tested in a three-fold dilution series using PBS, pH 7.4 with 0.005% Tween-20 and 0.1 mg/ml BSA. Each of the five concentrations was tested three times over the three different density surfaces. Assays were run at 25° C. The response data from each surface were fit to a 1:1 interaction model.

[5] = biological target: T3, EphA3-Fc recombinant fusion protein; assay: SPR (Biacore), 25 C, high density surface, 1:1 model; high chip density
Method: as §4

[6] = biological target: T3, EphA3-Fc recombinant fusion protein; assay: SPR (Biacore), 25 C, high density surface, 1:1 model
Method: as §4

[7] = biological target: T3, EphA3-Fc recombinant fusion protein; assay: SPR (Biacore), 25 C, medium density surface, 1:1 model
Method: as §4

[8] = biological target: T3, EphA3-Fc recombinant fusion protein; assay: SPR (Biacore), 25 C, low density surface, 1:1 model
Method: as §4

[9] = biological target: T3, EphA3-Fc recombinant fusion protein; assay: SPR (Biacore), 25 C, low density surface, 1:1 model; low chip density
Method: as §4

[10] = biological target: T3, EphA3-Fc recombinant fusion protein; assay: SPR (Biacore), 25 C, average of three surface densities, 1:1 model
Method: as §4

binding result [1]: binds | binding result [2]: binds | EC50 (read off the curve) [3]: ~0.2 µg/mL
B1: Chimeric IIIA4 IgG (antibody, V domains shown)
VH: EVKLEESGAELVKPGSSVKLSCKASGYNFTSYWINWVRLRPGQGLEWIGDIYPGSGNTNYDEKFKRKATLTVDTSSSTAYMQLSSLASEDSALYYCTRSGYYEDFDSWGQGTTLIVSS
VL: DIVLTQTPSSLSASLEERVSLTCRASQEISGYLGWLQQKPDGTIKRLIYAASTLDSGVPKKFSGNRSGSEYSLTISSLESEDFADYYCVQYANYPYTFGGGTKLEIK
notes: also called original chimeric antibody

koff [4]: 0.00178 s⁻¹ | koff [5]: 0.00345 s⁻¹ | Kd [6]: 2.06 nM | kon [6]: 1.67e+06 M⁻¹ s⁻¹ | Kd [7]: 2.91 nM | kon [7]: 611000 M⁻¹ s⁻¹ | Kd [8]: 1.4 nM | kon [8]: 4.1e+06 M⁻¹ s⁻¹ | koff [9]: 0.0058 s⁻¹ | Kd [10]: 2.1 nM | koff [10]: 0.003 s⁻¹ | kon [10]: 2e+06 M⁻¹ s⁻¹
B2: optimized reference Fab FA106 (Fab, V domains shown)
VH: B1 VH with S91T, L93V, T97A, L114V, I115T
VL: B1 VL with D85T, G100Q
notes: Fab derived from FA4 with several framework residues changed to human germ-line; Expressed in E. coli
